Assay [1] has as its target T1, Nuclear receptor coactivator 2 (NCOA2), amino acids 366-624, bait fused to the Gal4 DNA binding domain (Saccharomyces cerevisiae, UniProt P04386 1-147; Q15596 366-624).
T1 construct: Bait expressed in yeast from vector pGBTQ as a C-terminal fusion to Gal4 DBD; Residues are counted on GenBank X97674; also called GRIP 1
In words: yeast two-hybrid; Gal4 DBD bait, prey from human brain library (Gal4 AD). From the text:
A total human brain (person) cDNA library cloned into the yeast expression vector pACT2 was purchased from Clontech (human brain […] cDNA, cat. #HL4004AH), transformed into the yeast strain J692 (genotype of this strain: Mat a, ade2, his3, leu2, trp1, URA3::GAL1-lacZ LYS2::GAL1-HIS3 gal4del gal80del cyhR2), and selected for the ability to drive leucine synthesis. In these yeast cells, each cDNA is expressed as a fusion protein with the transcription activation domain of the transcription factor Gal4 (amino acids 768 to 881) and a 9 amino acid hemagglutinin epitope tag. J693 cells (Mat α type) expressing the bait were then mated with J692 cells (Mat a type) expressing proteins from the brain library. The resulting diploid yeast cells expressing proteins interacting with the bait protein were selected for the ability to synthesize tryptophan, leucine, histidine, and β-galactosidase. DNA was prepared from each clone, transformed by electroporation into E. coli strain KC8 (Clontech KC8 electrocompetent cells, cat. #C2023-1), and the cells were selected on ampicillin-containing plates in the absence of either tryptophane (selection for the bait plasmid) or leucine (selection for the brain library plasmid). DNA for both plasmids was prepared and sequenced by di-deoxynucleotide chain termination method. […]

The target in assay [2] is T1, Nuclear receptor coactivator 2 (NCOA2), …. In words: yeast two-hybrid screen with NCOA2 as bait. The text has this: (§1) In these yeast cells, the bait is produced as a C-terminal fusion protein with the DNA binding domain of the transcription factor Gal4 (amino acids 1 to 147). A total human brain (person) cDNA library cloned into the yeast expression vector pACT2 was purchased from Clontech (human brain […] cDNA, cat. #HL4004AH), transformed into the yeast strain J692 (genotype of this strain: Mat a, ade2, his3, leu2, trp1, URA3::GAL1-lacZ LYS2::GAL1-HIS3 gal4del gal80del cyhR2), and selected for the ability to drive leucine synthesis. In these yeast cells, each cDNA is expressed as a fusion protein with the transcription activation domain of the transcription factor Gal4 (amino acids 768 to 881) and a 9 amino acid hemagglutinin epitope tag. J693 cells (Mat α type) expressing the bait were then mated with J692 cells (Mat a type) expressing proteins from the brain library. The resulting diploid yeast cells expressing proteins interacting with the bait protein were selected for the ability to synthesize tryptophan, leucine, histidine, and β-galactosidase. DNA was prepared from each clone, transformed by electroporation into E. coli strain KC8 (Clontech KC8 electrocompetent cells, cat. #C2023-1), and the cells were selected on ampicillin-containing plates in the absence of either tryptophane (selection for the bait plasmid) or leucine (selection for the brain library plasmid). […]

Assay [3] has the same target. In words: yeast two-hybrid; bait NCOA2 aa 366-624 (Gal4 DBD), prey from human brain library (Gal4 AD).
Text: as §1

Data on four molecules can be found in US20030054515A1 (MYRIAD GENETICS, published 2003).

B1: KIAA0619, amino acids 589-828, prey clone fused to the Gal4 activation domain (other, Saccharomyces cerevisiae;human, UniProt P04386 768-881, looked up, not shown: small tags and cut ends)
chain: ANFNQSGNIADSSLSFTFTNSSNGPNLITTQTNSQALSQPIASSNVHDNFMNNEITASKIDDGNNSKPLSPGWTDQTAYNAFGITTGMFNTTTMDDVYNYLFDDEDTPPNPKKESKQIQQLESNNRDLQDKNCLLETAKLKLEKEFINLQSALESERRDRTHGSEIINDLQGRICGLEEDLKNGKILLAKVELEKRQLQERFTDLEKEKSNMEIDMTYQLKVIQQSLEQEEAEHKATKARLADKNKIYESIEEAKSEAMKEMEKKLLEERTLKQKVENLLLEAEKRCSLLDCDLKQSQQKINELLKQKDVLNEDVRNLTLKIEQETQKRCLTQNDLKMQTQQVNTLKMSEKQLK
notes: Prey from a human brain cDNA library in pACT2; residues counted on GenBank AB014519; also called ROCK2
With B1, in assay [1], the binding result is recorded as “binds”.

B2: Beta catenin (B-CAT), amino acids 487-668, prey clone fused to the Gal4 activation domain (other, Saccharomyces cerevisiae;human, UniProt P04386 768-881, looked up, not shown: small tags and cut ends)
chain: ANFNQSGNIADSSLSFTFTNSSNGPNLITTQTNSQALSQPIASSNVHDNFMNNEITASKIDDGNNSKPLSPGWTDQTAYNAFGITTGMFNTTTMDDVYNYLFDDEDTPPNPKKELHYGLPVVVKLLHPPSHWPLIKATVGLIRNLALCPANHAPLREQGAIPRLVQLLVRAHQDTQRRTSMGGTQQQFVEGVRMEEIVEGCTGALHILARDVHNRIVIRGLNTIPLFVQLLYSPIENIQRVAAGVLCELAQDKEAAEAIEAEGATAPLTELLHSRNEGVATYAAAVLFRMSEDKPQ
notes: Prey from a human brain cDNA library in pACT2; residues counted on GenBank Z19054
For the molecule B2, the binding result in assay [1] is listed as “binds”.

B3: PN12361, amino acids 1-223, prey clone fused to the Gal4 activation domain (other, Saccharomyces cerevisiae, not shown: small tags and cut ends)
chain: ANFNQSGNIADSSLSFTFTNSSNGPNLITTQTNSQALSQPIASSNVHDNFMNNEITASKIDDGNNSKPLSPGWTDQTAYNAFGITTGMFNTTTMDDVYNYLFDDEDTPPNPKKEMDALVEDDICILNHEKAHKRDTVTPVSIYSGDESVASHFALVTAYEDIKKRLKDSEKENSLLKKRIRFLEEKLIARFEEETSSVGREQVNKAYHAYREVCIDRDNLKSKLDKMNKDNSESLKVLNEQLQSKEVELLQLRTEVETQQVMRNLNPPSSNWEVEKLSCDLKIHGLEQELELMRKECSDLKIELQKAKQTDPYQEDNLKSRDLQKLSISSDNMQHAY
notes: range 768-881; Prey from a human brain cDNA library in pACT2; also called novel AZ2-like protein
Regarding B3, the binding result in assay [2] was “binds”.

B4: XE169, amino acids 1239-1439, prey clone fused to the Gal4 activation domain (other, Saccharomyces cerevisiae;human, UniProt P04386 768-881, looked up, not shown: small tags and cut ends)
chain: ANFNQSGNIADSSLSFTFTNSSNGPNLITTQTNSQALSQPIASSNVHDNFMNNEITASKIDDGNNSKPLSPGWTDQTAYNAFGITTGMFNTTTMDDVYNYLFDDEDTPPNPKKEDTKFLCPLCMRSRRPRLETILALLVALQRLPVRLPEGEALQCLTERAISWQGRARQALASEDVTALLGRLAELRQRLQAEPRPEEPPNYPAAPASDPLREGSGKDMPKVQGLLENGDSVTSPEKVAPEEGSGLELLSSLLPQLTGPVLELPEATRAPLEELMMEGDLLEVTLDENHSIWQLLQAGQPPDLERIRTLLE
notes: Prey from a human brain cDNA library in pACT2; also called SMCX
For the molecule B4, the binding result in assay [3] was “binds”.
